# What was measured:
# [1] = target: mSWI/SNF (BAF) complexes, endogenous; assay: urea denaturation of 293T nuclear extract followed by anti-Brg IP and immunoblot
# [2] = target: mSWI/SNF (BAF) complexes, endogenous; assay: urea denaturation and IP, as restated in the discussion
# [3] = target: mSWI/SNF (BAF) complexes, endogenous; assay: quantitative densitometry of anti-SS18 immunoblot of glycerol gradient, Aska-SS cells bearing SS18-SSX1
# [4] = target: mSWI/SNF (BAF) complexes, endogenous; assay: urea denaturation and IP, as restated in the discussion; complexes of synovial sarcoma cells
urea concentration required to dissociate [1] [M],urea concentration required to remove [2] [M],percentage of BAF complexes that contain wild-type SS18 [3] [%],urea concentration required to remove [4] [M],Substance
5,8,2 to 8,,"SS18 (wild-type, endogenous human) (from UniProt Q15532 2-418)"
,,,8,SS18-SSX1 fusion protein (from UniProt Q15532 1-379)

# — patent US20190269761A1
